# From article PMC9354405
# Target: HBV S/preS1^16-42 chimeric antigen (Hepatitis B virus, genotype D) (UniProt P03138)
# Assay: SDS-PAGE under non-reducing conditions with western blot; lysates of transfected HEK293T cells, -DTT, detected with anti-preS1 antibodies; dimers of ~50 kDa held by intermolecular disulfide bonds
substance,measurement,value
HBV S/preS1^16-42 chimeric antigen (from UniProt P03138 16-42),stoichiometry N,2
